Experimental data from article PMC2834734.

Target: myc tagged version of gp96 (UniProt P14625)
Experiment: pull-down; gp96-myc held on anti-myc agarose beads (Pierce c-Myc Tag IP/Co-IP kit); mixed with 10^8 DRP of purified BAAV or AAV4 vector; 4 °C for 1 h; extensive washes with TBS-T in spin columns; bound vector DNA quantified by qPCR; fold change relative to vector bound to GFP beads; n = 3

Chain of UniProt P14625 (P14625 22-803): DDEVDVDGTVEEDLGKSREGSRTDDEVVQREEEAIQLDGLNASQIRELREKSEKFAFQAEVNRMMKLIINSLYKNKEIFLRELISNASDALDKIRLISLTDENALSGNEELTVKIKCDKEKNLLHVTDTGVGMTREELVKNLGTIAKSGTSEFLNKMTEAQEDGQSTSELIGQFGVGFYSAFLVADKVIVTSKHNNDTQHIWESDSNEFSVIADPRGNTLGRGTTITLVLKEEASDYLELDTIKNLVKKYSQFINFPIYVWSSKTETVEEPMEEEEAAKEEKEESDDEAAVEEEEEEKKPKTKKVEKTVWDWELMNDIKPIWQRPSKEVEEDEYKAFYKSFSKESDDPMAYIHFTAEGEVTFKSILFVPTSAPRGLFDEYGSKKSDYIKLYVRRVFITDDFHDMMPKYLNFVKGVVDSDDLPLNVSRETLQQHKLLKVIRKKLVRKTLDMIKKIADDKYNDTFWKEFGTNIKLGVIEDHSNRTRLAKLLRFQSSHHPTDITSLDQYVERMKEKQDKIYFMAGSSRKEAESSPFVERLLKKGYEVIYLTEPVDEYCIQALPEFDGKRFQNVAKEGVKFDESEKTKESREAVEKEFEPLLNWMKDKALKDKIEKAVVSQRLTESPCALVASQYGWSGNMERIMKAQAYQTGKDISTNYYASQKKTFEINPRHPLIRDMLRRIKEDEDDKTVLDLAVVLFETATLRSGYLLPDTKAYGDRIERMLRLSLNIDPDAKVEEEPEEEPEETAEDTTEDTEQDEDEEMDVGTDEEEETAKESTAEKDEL

Question: With “recombinant bovine adeno-associated virus (BAAV) vector particles containing the CMV-GFP expression cassette (complex)” as the substance, how does the fold increase in bound vector against control GFP or TRPC1 beads read?
Answer: 2 to 3 fold
